Experiments:
[1] = target: T1, Muc1 mucin carrying the CA6 sialoglycotope (human, UniProt P15941 24-1255, sialylated O-linked carbohydrate carrying the CA6 epitope; positions not stated); experiment: flow cytometry on BT549 cells, apparent Kd
T1 construct: whole, on cells; Target of DS6 on CA6-positive human cell lines (flow cytometry) and in their lysates (dot blots, immunoprecipitation); also called CA6 antigen; DS6 antigen

[2] = target: T1, Muc1 mucin carrying the CA6 …; experiment: flow cytometry on TOV-21G cells, apparent Kd
Experimental: (§1) Human cell lines were obtained from the American Type Culture Collection (ATCC) with the exception of OVCAR5 (Kearse et al., Int. J. Cancer 88(6):866-872 (2000)), OVCAR8 and IGROV1 cells (M. Seiden, Massachusetts General Hospital). All cells were grown in RPMI 1640 supplemented with 4 mM L-glutamine, 50 U/ml penicillin, 50 μg/ml streptomycin (Cambrex Bio Science, Rockland, Me.) and 10% v/v fetal bovine serum (Atlas Biologicals, Fort Collins, Colo.), referred hereafter as culture media. Cells were maintained in a 37° C., 5% CO₂ humidified incubator.
(§2) Cells ([…]) were incubated, on ice for 3-4 h, with serially diluted concentrations of the DS6 antibody prepared in FACS buffer (2% goat serum, RPMI) into 96-well plates. The cells were spun down in a table top centrifuge at 1500 rpm for 5 min at 4° C. After removing the media, the wells were then refilled with 150 μl of FACS buffer. The wash step was then repeated. FITC-labeled goat anti-mouse IgG (Jackson Immunoresearch) was diluted 1:100 to FACS buffer and incubated with the cells for 1 h on ice. The plate was covered in foil to prevent photobleaching of the signal. After two washes, the cells were fixed with 1% formaldehyde and analyzed on a flow cytometer.

[3] = target: T1, Muc1 mucin carrying the CA6 …; experiment: flow cytometry on T-47D cells, FITC anti-mouse IgG
Experimental: The fluorescence of cell lines incubated with the DS6 primary antibody and FITC conjugated anti-mouse IgG(H+L) secondary antibodies was measured by flow cytometry.
as §2

[4] = target: T1, Muc1 mucin carrying the CA6 …; experiment: flow cytometry on Hs766T cells, apparent Kd
Experimental: as §1, §2

[5] = target: T1, Muc1 mucin carrying the CA6 …; experiment: flow cytometry on HPAF-II cells, apparent Kd
[6] = target: T1, Muc1 mucin carrying the CA6 …; experiment: flow cytometry on WISH cells, apparent Kd
[7] = target: T1, Muc1 mucin carrying the CA6 …; experiment: flow cytometry on BT-483 cells, apparent Kd
Experimental: as §2

[8] = target: T1, Muc1 mucin carrying the CA6 …; experiment: competition flow cytometry on WISH cells; competitor 2 nM biotin-muDS6, streptavidin-DTAF
Experimental: To confirm that the huDS6 versions retains the affinity of muDS6, competitive binding experiments were conducted. […] In some cases, the experimentally measured apparent Kd can vary simply because of the secondary reagent used to indirectly detect binding.

[9] = target: T1, Muc1 mucin carrying the CA6 …; experiment: flow cytometry on Caov-3 cells, apparent Kd
[10] = target: T1, Muc1 mucin carrying the CA6 …; experiment: flow cytometry on T-47D cells, apparent Kd
Experimental: as §2

[11] = target: T1, Muc1 mucin carrying the CA6 …; experiment: flow cytometry on MDA-MB-157 cells, apparent Kd
Experimental: as §1, §2

[12] = target: T1, Muc1 mucin carrying the CA6 …; experiment: flow cytometry on HeLa cells, apparent Kd
[13] = target: T1, Muc1 mucin carrying the CA6 …; experiment: flow cytometry on BT-20 cells, apparent Kd
[14] = target: T1, Muc1 mucin carrying the CA6 …; experiment: flow cytometry on WISH cells, apparent Kd; remark: listed apart in the source
Experimental: as §1, §2

[15] = target: T1, Muc1 mucin carrying the CA6 …; experiment: flow cytometry on T-47D cells, apparent Kd; remark: listed apart in the source
Experimental: as §1, §2

[16] = target: T1, Muc1 mucin carrying the CA6 …; experiment: flow cytometry on Caov-3 cells, apparent Kd; remark: listed apart in the source
[17] = target: T1, Muc1 mucin carrying the CA6 …; experiment: flow cytometry on KB cells, apparent Kd
[18] = target: T1, Muc1 mucin carrying the CA6 …; experiment: flow cytometry on Caov-4 cells, apparent Kd
Experimental: as §2

[19] = target: T1, Muc1 mucin carrying the CA6 …; experiment: flow cytometry on KB cells, apparent Kd; remark: listed apart in the source
[20] = target: T1, Muc1 mucin carrying the CA6 …; experiment: flow cytometry on MCF7 cells, apparent Kd

- Kd [1]: 1.05 nM
- Kd [2]: 0.307 nM
- Kd [3]: 2.59 nM
- Kd [4]: 2.32 nM
- Kd [5]: 2.81 nM
- Kd [6]: 2.38 nM
- Kd [7]: 13.7 nM
- EC50 [8]: 12.2 nM
- Kd [9]: 5.48 nM
- Kd [10]: 3.42 nM
- Kd [11]: 0.197 nM
- Kd [12]: 0.694 nM
- Kd [13]: 0.914 nM
- Kd [14]: 2.38 nM
- Kd [15]: 3.42 nM
- Kd [16]: 5.48 nM
- Kd [17]: 0.111 nM
- Kd [18]: 4.04 nM
- Kd [19]: 1.11 nM
- Kd [20]: 2.89 nM
B1: murine DS6 anti-CA6 monoclonal antibody (antibody, IgG1, V domains shown)
VH: QAYLQQSGAELVRSGASVKMSCKASGYTFTSYNMHWVKQTPGQGLEWIGYIYPGNGATNYNQKFKGKATLTADPSSSTAYMQISSLTSEDSAVYFCARGDSVPFAYWGQGTLVTVSA
VL: QIVLTQSPAIMSASPGEKVTITCSAHSSVSFMHWFQQKPGTSPKLWIYSTSSLASGVPARFGGSGSGTSYSLTISRMEAEDAATYYCQQRSSFPLTFGAGTKLELKR
notes: Whole murine monoclonal IgG from the DS6 hybridoma (ATCC PTA-4449); the 3' heavy chain cloning primer was BamIgG1 and the light chain primer was kappa; also called DS6 antibody; muDS6
